± gives the uncertainty stated by the source.
B1: Calcium-binding protein 2, residues 155 to 219; numbered along this chain, Q9NPB3 (parent)
chain: RELRDAFREFDTNGDGRISVGELRAALKALLGERLSQREVDEILQDVDLNGDGLVDFEEFVRMMS

Variants of: B1
Assay: abundance fitness (aPCA) (normalised: wild type 0, dead -1); higher = more abundant; growth selection in yeast, the domain comes from the species named
Conditions: Homo sapiens

Abundance fitness of substitutions, site by site:
N50: C 0.032 ± 0.12, Y -0.419 ± 0.16, V -0.254 ± 0.061, I -0.488 ± 0.12, W -0.627 ± 0.067, L -0.232 ± 0.062, E -0.19 ± 0.061, T -0.022 ± 0.084, S -0.092 ± 0.067, F -0.346 ± 0.14, P -0.2 ± 0.062, M -0.833 ± 0.2, A -0.056 ± 0.077, K 0.028 ± 0.068, Q -0.014 ± 0.09, D 0.186 ± 0.077
L54: H -0.292 ± 0.31, D -0.208 ± 0.14, P -0.291 ± 0.063, V -0.241 ± 0.047, I -0.223 ± 0.2, F -0.212 ± 0.11, Y -0.177 ± 0.12, Q -0.088 ± 0.11, W -0.346 ± 0.043, E -0.07 ± 0.056, R -0.283 ± 0.046, G 0.099 ± 0.053, T 0.012 ± 0.096, K -0.207 ± 0.19, A -0.211 ± 0.057, C -0.21 ± 0.14
E59: F -0.146 ± 0.11, Y -0.157 ± 0.22, W -0.259 ± 0.081, M 0.059 ± 0.068, H -0.164 ± 0.19, G -0.171 ± 0.064, P -0.1 ± 0.13, V 0.083 ± 0.074, C 0.033 ± 0.072, N -0.282 ± 0.22, D -0.405 ± 0.2, T 0.088 ± 0.096, K -0.092 ± 0.21, S -0.075 ± 0.064, I -0.051 ± 0.1, Q -0.025 ± 0.097, A -0.072 ± 0.064, R -0.089 ± 0.056, L 0.071 ± 0.055
V55: M -0.338 ± 0.057, Q -0.391 ± 0.084, G -0.829 ± 0.044, N -0.714 ± 0.069, W -0.192 ± 0.053, C -0.023 ± 0.041, T -0.038 ± 0.055, R -0.78 ± 0.046, S -0.394 ± 0.038, L -0.028 ± 0.045, F 0.048 ± 0.063, E -1.02 ± 0.16, H -0.382 ± 0.07, P -0.874 ± 0.098, A -0.189 ± 0.057, K -0.691 ± 0.087, D -1.16 ± 0.09, I -0.185 ± 0.054
M63: T 0.102 ± 0.069, D -0.323 ± 0.099, H 0.05 ± 0.18, V 0.047 ± 0.081, Y -0.108 ± 0.19, R -0.404 ± 0.065, K -0.459 ± 0.18, W -0.003 ± 0.078, P -0.614 ± 0.1, A -0.048 ± 0.094, L 0.101 ± 0.057, Q -0.035 ± 0.076, E -0.721 ± 0.46, F -0.081 ± 0.19, C -0.058 ± 0.11, N 0.057 ± 0.21, G -0.16 ± 0.082, S -0.158 ± 0.074
M64: H 0.098 ± 0.13, S 0.174 ± 0.08, C 0.067 ± 0.21, G 0.008 ± 0.078, T 0.015 ± 0.12, P -0.555 ± 0.37, K -0.075 ± 0.15, R 0.109 ± 0.053, D -0.255 ± 0.081, L -0.025 ± 0.05, N 0.171 ± 0.22, I -0.014 ± 0.28, E 0.301 ± 0.42, Q -0.041 ± 0.19
V47: D -0.236 ± 0.053, E -0.137 ± 0.056, M -0.303 ± 0.088, I -0.204 ± 0.048, K -0.064 ± 0.11, W -0.199 ± 0.072, A -0.143 ± 0.055, C -0.241 ± 0.088, T -0.041 ± 0.069, Y -0.01 ± 0.058, N -0.211 ± 0.06, H 0.057 ± 0.12, Q 0.013 ± 0.1, P -0.394 ± 0.049, L -0.475 ± 0.049, F -0.15 ± 0.051
D56: I -0.12 ± 0.099, W -0.531 ± 0.089, L -0.201 ± 0.088, S 0.078 ± 0.082, Q -0.153 ± 0.086, C -0.321 ± 0.15, N -0.022 ± 0.16, K -0.103 ± 0.067, R -0.088 ± 0.052, Y -0.198 ± 0.19, A 0.002 ± 0.082, H -0.015 ± 0.14, G -0.031 ± 0.041, M -0.262 ± 0.18, E 0.12 ± 0.095, T 0.019 ± 0.069, V 0.044 ± 0.077, F -0.862 ± 0.26, P 0.009 ± 0.092
D48: E 0.131 ± 0.1, G -0.529 ± 0.081, M 0.05 ± 0.11, R 0.185 ± 0.05, F -0.434 ± 0.27, Y 0.042 ± 0.099, T 0.057 ± 0.098, A 0.068 ± 0.098, P -0.231 ± 0.086, Q 0.127 ± 0.074, I 0.105 ± 0.41, K 0.152 ± 0.082, H 0.108 ± 0.11, S 0.109 ± 0.087, N 0.122 ± 0.13, L -0.015 ± 0.066, V 0.092 ± 0.048, W -0.103 ± 0.065
E58: M -0.202 ± 0.2, Q -0.102 ± 0.089, Y -0.43 ± 0.16, L -0.008 ± 0.097, D -0.061 ± 0.092, W -0.431 ± 0.13, V -0.105 ± 0.085, R -0.117 ± 0.086, T -0.088 ± 0.078, K 0.102 ± 0.2, P -0.025 ± 0.1, G -0.003 ± 0.056, H -0.008 ± 0.17, C -0.576 ± 0.17, S -0.019 ± 0.077, F -0.331 ± 0.24, A -0.077 ± 0.086
Q45: T 0.003 ± 0.067, R 0.054 ± 0.072, D -0.144 ± 0.092, G -0.19 ± 0.12, E -0.076 ± 0.092, A -0.069 ± 0.061, V -0.108 ± 0.068, K -0.215 ± 0.19, M -0.141 ± 0.092, H -0.013 ± 0.22, Y -0.16 ± 0.12, L 0.015 ± 0.064, P -0.133 ± 0.073, S -0.147 ± 0.096, W -0.109 ± 0.076, I -0.01 ± 0.13, F -0.263 ± 0.097
R62: Y -0.2 ± 0.26, P -0.37 ± 0.074, Q -0.145 ± 0.069, C -0.124 ± 0.097, S -0.065 ± 0.06, N -0.111 ± 0.4, F -0.218 ± 0.17, W -0.102 ± 0.066, V -0.074 ± 0.059, T -0.182 ± 0.089, L -0.21 ± 0.075, H -0.233 ± 0.12, D 0.077 ± 0.21, G -0.025 ± 0.068, E -0.307 ± 0.14
D52: K -0.094 ± 0.1, T -0.196 ± 0.097, A 0.009 ± 0.052, M -0.168 ± 0.086, F -0.414 ± 0.18, S -0.133 ± 0.08, E 0.043 ± 0.068, I -0.126 ± 0.082, C -0.124 ± 0.091, Q -0.121 ± 0.11, L -0.108 ± 0.062, P -0.145 ± 0.09, Y -0.18 ± 0.072, H -0.049 ± 0.11, R -0.149 ± 0.064
I43: A 0.254 ± 0.091, W -0.142 ± 0.056, R 0.03 ± 0.065, C -0.009 ± 0.14, N 0.053 ± 0.18, G 0.123 ± 0.069, F -0.282 ± 0.29, H 0.161 ± 0.17, T 0.092 ± 0.084, Y -0.345 ± 0.33, P -0.032 ± 0.12, Q 0.099 ± 0.11, S 0.08 ± 0.063, V 0.01 ± 0.084, M -0.017 ± 0.074, K 0.053 ± 0.067, E 0.038 ± 0.12
V61: C -0.014 ± 0.39, F -0.134 ± 0.16, M -0.325 ± 0.22, R -0.04 ± 0.057, T -0.044 ± 0.095, E 0.012 ± 0.17, K -0.029 ± 0.1, I -0.149 ± 0.17, L -0.012 ± 0.065, Q -0.051 ± 0.13, S 0.128 ± 0.076, Y -0.013 ± 0.2, D 0.009 ± 0.17, W -0.114 ± 0.11, A -0.054 ± 0.077, H 0.011 ± 0.13, P -0.445 ± 0.23, G -0.005 ± 0.067
D46: H -0.366 ± 0.16, W -0.446 ± 0.08, M -0.42 ± 0.076, R -0.493 ± 0.066, L -0.326 ± 0.1, K -0.148 ± 0.13, Q -0.152 ± 0.089, T 0.042 ± 0.1, E -0.155 ± 0.078, F -0.321 ± 0.11, S -0.123 ± 0.069, V -0.343 ± 0.083, N -0.2 ± 0.11, Y -0.475 ± 0.22, I -0.408 ± 0.12
F60: V -0.278 ± 0.11, W -0.012 ± 0.072, L -0.228 ± 0.082, M -0.116 ± 0.27, H -0.875 ± 0.14, S -0.326 ± 0.073, R -0.798 ± 0.12, Q -0.899 ± 0.12, D -0.71 ± 0.16, T -0.306 ± 0.096, E -0.672 ± 0.094, P -0.896 ± 0.11, C -0.176 ± 0.077, I 0.116 ± 0.34, A -0.471 ± 0.074, K -1.08 ± 0.28
G51: K 0.014 ± 0.17, P 0.151 ± 0.1, V 0.003 ± 0.06, F -0.269 ± 0.18, R -0.085 ± 0.04, H -0.071 ± 0.15, E 0.181 ± 0.063, Y -0.107 ± 0.19, M 0.047 ± 0.071, N 0.098 ± 0.12, L 0.06 ± 0.061, W -0.301 ± 0.062, T 0.006 ± 0.11, A 0.062 ± 0.054, D 0.057 ± 0.16
G53: I -0.147 ± 0.12, W -0.361 ± 0.069, T -0.107 ± 0.11, R -0.397 ± 0.057, C -0.121 ± 0.13, P -0.188 ± 0.085, Y -0.012 ± 0.25, L -0.23 ± 0.067, A -0.115 ± 0.064, M -0.141 ± 0.09, D -0.088 ± 0.062, V -0.063 ± 0.062, S -0.05 ± 0.068, E -0.199 ± 0.086, H 0.011 ± 0.11
L44: K 0.055 ± 0.14, T 0 ± 0.12, P -0.323 ± 0.17, A 0.116 ± 0.067, W -0.496 ± 0.25, V 0 ± 0.087, M -0.219 ± 0.21, G -0.01 ± 0.071, I 0.072 ± 0.15, H 0.097 ± 0.3, D -0.064 ± 0.14, E -0.123 ± 0.14, R -0.178 ± 0.09
E42: S -0.136 ± 0.077, Y -0.309 ± 0.29, P -0.301 ± 0.098, Q -0.272 ± 0.1, W -0.183 ± 0.087, V -0.108 ± 0.088, R -0.08 ± 0.089
